Article PMC7082059 (PLoS Pathogens, 2020)
*: point of attachment. Biotin = O=C1N[C@H]2[C@H](CS[C@H]2CCCCC(=O)*)N1; linker = not defined here

Assays:
Details in all cases: both partners purified
[1] = target: T1, Biotin-linker-NPNANPNANPNANPNA-NH2 (NPNA)4 (Plasmodium falciparum, reading uncertain; also: biotin-linker structure not given here, printed as Biotin-linker-NPNANPNANPNANPNA-NH2 (NPNA)4); assay: BLI; biotinylated peptide captured on streptavidin sensors, dipped into serial dilutions of Fab in Kinetics buffer (Dulbecco's PBS, 0.002% Tween20, 0.01% BSA), 25 °C, Octet Red
T1 construct: four NPNA repeats of the central NANP repeat region of the Plasmodium falciparum circumsporozoite protein (PfCSP); The linker between biotin and peptide is not described; also called NANP peptide; called (NPNA)3 in the results on BLI; source: synthetic peptide, bought: Innopep Inc
T1 chain: {Biotin-linker}-NPNANPNANPNANPNA-NH2

[2] = target: T2, Biotin-linker-KQPADGNPDPNANPNV-NH2 (Junc) (Plasmodium falciparum, reading uncertain; also: biotin-linker structure not given here, printed as Biotin-linker-KQPADGNPDPNANPNV-NH2 (Junc)); assay: as above
T2 construct: junctional region of the Plasmodium falciparum circumsporozoite protein (PfCSP), end of the N-terminal domain and first repeats; numbers count on: the peptide (K1-V16); The linker between biotin and peptide is not described; also called junctional peptide; source: synthetic peptide, bought: Innopep Inc
T2 chain: {Biotin-linker}-KQPADGNPDPNANPNV-NH2

[3] = target: T3, Biotin-linker-KQPADGNPDPNANPNV-NH2 (Junc) (Plasmodium falciparum, reading uncertain; also: biotin-linker structure not given here, printed as Biotin-linker-KQPADGNPDPNANPNV-NH2 (Junc)); assay: BLI; Octet Red; biotinylated peptide (10 ug/mL) captured on streptavidin sensors, dipped into serial dilutions of Fab in Kinetics buffer (Dulbecco's PBS, 0.002% Tween20, 0.01% BSA); 25 C; Fab667-Junc fitted to a biphasic binding model; errors are fitting errors
T3 construct: junctional region between the N-terminal domain and the central repeats of Plasmodium falciparum circumsporozoite protein (PfCSP); also called junctional peptide; source: synthetic peptide, ordered from Innopep Inc
T3 chain: {Biotin-linker}-KQPADGNPDPNANPNV-NH2

[4] = target: T4, Biotin-linker-NPNANPNANPNANPNA-NH2 (NPNA)4 (Plasmodium falciparum, reading uncertain; also: biotin-linker structure not given here, printed as Biotin-linker-NPNANPNANPNANPNA-NH2 (NPNA)4); assay: as above
T4 construct: four NPNA repeats of the central repeat region of Plasmodium falciparum circumsporozoite protein (PfCSP); also called NANP peptide; source: synthetic peptide, ordered from Innopep Inc
T4 chain: {Biotin-linker}-NPNANPNANPNANPNA-NH2

[5] = target: T5, Ac-KQPADGNPDPNANP-NH2 (Junc) (Plasmodium falciparum 3D7); assay: crystal structure; Fab at 11 mg/mL in TBS with a 5:1 molar ratio of peptide to Fab, crystals grown at 293 K
T5 construct: junctional region of the Plasmodium falciparum circumsporozoite protein (PfCSP); numbers count on: the peptide (K1-P14); also called junctional peptide for crystallography; source: synthetic peptide, bought: Innopep Inc., 98% purity
T5 chain: Ac-KQPADGNPDPNANP-NH2

[6] = target: T6, Ac-NPNANPNANPNA-NH2 [(NPNA)3] (Plasmodium falciparum 3D7); assay: as above
T6 construct: three NPNA repeats of the central NANP repeat region of the Plasmodium falciparum circumsporozoite protein (PfCSP); numbers count on: the peptide (N1-A12); also called (NPNA)3 peptide; source: synthetic peptide, bought: Innopep Inc., 98% purity
T6 chain: Ac-NPNANPNANPNA-NH2

Binder	Kd [1] [nM]	koff [4] [s⁻¹]	kon [4] [M⁻¹ s⁻¹]	Kd [4] [nM]	also measured
Fab317 (Fab, V domains shown, Fab heavy chain; in the cited structure of Fab317, PDB 6AXL; Fab light chain; NANP-only antibody used for comparison; source: purified) VH: QMQLVESGGGVVQPGRSLRLSCTASGFTFSTYAMHWVRQSPGQGLQWVAVISYHSTNKYYEDSVRGRFTISRDNSKNTLYLQMNSLRAEDTAVYYCARDGYSSSFFDFWGQGTLVTVSS VL: DIQMTQSPSTLSASVGDRVAITCRASQSISRWLAWYQQQPGKAPKLLMSGASVLESGVPSRFSGSGSGTEFTLTISSLQPDDFATYYCQHYNSYFVTFGQGTKVEIK	25	–	–	–	binding result [2]: no binding (tested: 8000 nM)
Fab317 (Fab, V domains shown, heavy chain of Fab317 in the cited crystal structure PDB 6AXL; light chain of Fab317 in the cited crystal structure PDB 6AXL; also called mAb317 (as IgG)) VH: QMQLVESGGGVVQPGRSLRLSCTASGFTFSTYAMHWVRQSPGQGLQWVAVISYHSTNKYYEDSVRGRFTISRDNSKNTLYLQMNSLRAEDTAVYYCARDGYSSSFFDFWGQGTLVTVSS VL: DIQMTQSPSTLSASVGDRVAITCRASQSISRWLAWYQQQPGKAPKLLMSGASVLESGVPSRFSGSGSGTEFTLTISSLQPDDFATYYCQHYNSYFVTFGQGTKVEIK	–	0.00146	58400	–	binding result [3]: no binding (tested: 8000 nM)
Fab668 (Fab, V domains shown, Fab heavy chain; germline VH1-3*01; CDR H3 of 17 residues with a disulfide between Cys98 and Cys100C; lambda light chain; germline Vλ2-23*02; source: purified) VH: QVQLVQSGAEVKKPGASVKVSCKASGFTFTDYAMHWVRQAPGQRLEWMGWINAGNGYTKYSQKFQDRLTITRDTFASTVYMELSSLRSEDTTVYYCARDGFCPSNTCSGYYGMDVWGQGTTVTVSS VL: QSALTQPASVSGSPGQSITISCTGTSSDVGSYNYVSWYQQHPGKAPKLMIYDVNTRPSGVSIRFSASKSGNTASLTVSGLQAEDEAVYYCSSYAGSSTWVFGGGTKLTVL	56	–	–	–	Kd [2]: 206 nM; binding result [5]: binds
Fab668 (Fab, V domains shown, Germline genes VH1-3*01 and Vlambda2-23*02; CDR H3 of 17 residues; also called mAb668 (as IgG)) VH: QVQLVQSGAEVKKPGASVKVSCKASGFTFTDYAMHWVRQAPGQRLEWMGWINAGNGYTKYSQKFQDRLTITRDTFASTVYMELSSLRSEDTTVYYCARDGFCPSNTCSGYYGMDVWGQGTTVTVSS VL: QSALTQPASVSGSPGQSITISCTGTSSDVGSYNYVSWYQQHPGKAPKLMIYDVNTRPSGVSIRFSASKSGNTASLTVSGLQAEDEAVYYCSSYAGSSTWVFGGGTKLTVL	–	0.00179	32200	55.6	koff [3]: 0.00424 s⁻¹; kon [3]: 20600 M⁻¹ s⁻¹
Fab667 (Fab, V domains shown, Fab heavy chain; germline VH1-3*01; CDR H3 of 19 residues; lambda light chain; germline Vλ2-23*02; source: purified) VH: QVQLVQSGAEVKKPGASVKVSCRASGYTFTNYAMHWVRQAPGQRLEWMGWINAGNGYTKYSQKFQDRVTITRDTSATTAYMELSSLRSEDTAMYYCARDSFYDILSGPVYHYYGMDVWGQGTTVTVSS VL: QSALTQPDSVSGSPGQSITISCTGTSNDVGIYNHVSWYQQHPGKAPKLMIYDVNKRPSGISNRFSGSKSGDTASLTISGLQAEDEADYYCCSYAGSSAWVFGGGTKLTVL	170	–	–	–	binding result [6]: binds
Fab667 (Fab, V domains shown, Germline genes VH1-3*01 and Vlambda2-23*02; CDR H3 of 19 residues; also called mAb667 (as IgG)) VH: QVQLVQSGAEVKKPGASVKVSCRASGYTFTNYAMHWVRQAPGQRLEWMGWINAGNGYTKYSQKFQDRVTITRDTSATTAYMELSSLRSEDTAMYYCARDSFYDILSGPVYHYYGMDVWGQGTTVTVSS VL: QSALTQPDSVSGSPGQSITISCTGTSNDVGIYNHVSWYQQHPGKAPKLMIYDVNKRPSGISNRFSGSKSGDTASLTISGLQAEDEADYYCCSYAGSSAWVFGGGTKLTVL	–	0.00429	24400	176	–
